One may read the Kd as the free concentration of one partner at which half of the binding sites on the other are occupied at equilibrium, for simple one-to-one binding.

This note sets out measurements from paper PMC5397608 (Journal of Molecular Biology, 2017).

B1: mAb2_SL50K (antibody, V domains shown)
VH: EVQLVESGGGLVQPGGSLRLSCAASGFTISDYWIHWVRQAPGKGLEWVAGITPAGGYTYYADSVKGRFTISADTSKNTAYLQMNSLRAEDTAVYYCARFVFFLPYAMDYWGQGTLVTVSS
VL: DIQMTQSPSSLSASVGDRVTITCRASQDVSTAVAWYQQKPGKAPKLLIYKASFLYSGVPSRFSGSGSGTDFTLTISSLQPEDFATYYCQQSYTTPPTFGQGTKVEIK
notes: as the heavy chain variable region of m1 (PDB 2FJF); constant regions of an IgG1 isotype, already in the expression vector; as the light chain variable region of m1 (PDB 2FJF), with the stated change; light chain constant region from the expression vector; IgG1; also called S50K in the light chain; source: CHO K1, transiently transfected, purified (protein A)
B2: mAb2_SL50K_SH21R_SH85R (antibody, V domains shown)
VH: EVQLVESGGGLVQPGGSLRLRCAASGFTISDYWIHWVRQAPGKGLEWVAGITPAGGYTYYADSVKGRFTISADTSKNTAYLQMNRLRAEDTAVYYCARFVFFLPYAMDYWGQGTLVTVSS
VL: DIQMTQSPSSLSASVGDRVTITCRASQDVSTAVAWYQQKPGKAPKLLIYKASFLYSGVPSRFSGSGSGTDFTLTISSLQPEDFATYYCQQSYTTPPTFGQGTKVEIK
notes: as the heavy chain variable region of m1 (PDB 2FJF), with the stated changes; constant regions of an IgG1 isotype, already in the expression vector; as the light chain variable region of m1 (PDB 2FJF), with the stated change; light chain constant region from the expression vector; IgG1; also called Variant 7; source: CHO K1, transiently transfected, purified (protein A)
B3: mAb2_VH100R (antibody, V domains shown)
VH: EVQLVESGGGLVQPGGSLRLSCAASGFTISDYWIHWVRQAPGKGLEWVAGITPAGGYTYYADSVKGRFTISADTSKNTAYLQMNSLRAEDTAVYYCARFRFFLPYAMDYWGQGTLVTVSS
VL: DIQMTQSPSSLSASVGDRVTITCRASQDVSTAVAWYQQKPGKAPKLLIYSASFLYSGVPSRFSGSGSGTDFTLTISSLQPEDFATYYCQQSYTTPPTFGQGTKVEIK
notes: as the heavy chain variable region of m1 (PDB 2FJF), with the stated change; constant regions of an IgG1 isotype, already in the expression vector; as the light chain variable region of m1 (PDB 2FJF); light chain constant region from the expression vector; IgG1; source: CHO K1, transiently transfected, purified (protein A)
B4: mAb2_SL52R_SH21R_SH85R_FH101P (antibody, V domains shown)
VH: EVQLVESGGGLVQPGGSLRLRCAASGFTISDYWIHWVRQAPGKGLEWVAGITPAGGYTYYADSVKGRFTISADTSKNTAYLQMNRLRAEDTAVYYCARFVPFLPYAMDYWGQGTLVTVSS
VL: DIQMTQSPSSLSASVGDRVTITCRASQDVSTAVAWYQQKPGKAPKLLIYSARFLYSGVPSRFSGSGSGTDFTLTISSLQPEDFATYYCQQSYTTPPTFGQGTKVEIK
notes: as the heavy chain variable region of m1 (PDB 2FJF), with the stated changes; constant regions of an IgG1 isotype, already in the expression vector; as the light chain variable region of m1 (PDB 2FJF), with the stated change; light chain constant region from the expression vector; IgG1; also called mAb2 FH101P SL52R SH21R SH85R; source: CHO K1, transiently transfected, purified (protein A)
B5: mAb2_FH101P (antibody, V domains shown)
VH: EVQLVESGGGLVQPGGSLRLSCAASGFTISDYWIHWVRQAPGKGLEWVAGITPAGGYTYYADSVKGRFTISADTSKNTAYLQMNSLRAEDTAVYYCARFVPFLPYAMDYWGQGTLVTVSS
VL: DIQMTQSPSSLSASVGDRVTITCRASQDVSTAVAWYQQKPGKAPKLLIYSASFLYSGVPSRFSGSGSGTDFTLTISSLQPEDFATYYCQQSYTTPPTFGQGTKVEIK
notes: as for B3
B6: mAb2_SL50K_SH21R_SH85R_FH101P (antibody, V domains shown)
VH: EVQLVESGGGLVQPGGSLRLRCAASGFTISDYWIHWVRQAPGKGLEWVAGITPAGGYTYYADSVKGRFTISADTSKNTAYLQMNRLRAEDTAVYYCARFVPFLPYAMDYWGQGTLVTVSS
VL: DIQMTQSPSSLSASVGDRVTITCRASQDVSTAVAWYQQKPGKAPKLLIYKASFLYSGVPSRFSGSGSGTDFTLTISSLQPEDFATYYCQQSYTTPPTFGQGTKVEIK
notes: as the heavy chain variable region of m1 (PDB 2FJF), with the stated changes; constant regions of an IgG1 isotype, already in the expression vector; as the light chain variable region of m1 (PDB 2FJF), with the stated change; light chain constant region from the expression vector; IgG1; also called mAb2 FH101P SL50K SH21R SH85R; source: CHO K1, transiently transfected, purified (protein A)
B7: mAb2_SL50D (antibody, V domains shown)
VH: EVQLVESGGGLVQPGGSLRLSCAASGFTISDYWIHWVRQAPGKGLEWVAGITPAGGYTYYADSVKGRFTISADTSKNTAYLQMNSLRAEDTAVYYCARFVFFLPYAMDYWGQGTLVTVSS
VL: DIQMTQSPSSLSASVGDRVTITCRASQDVSTAVAWYQQKPGKAPKLLIYDASFLYSGVPSRFSGSGSGTDFTLTISSLQPEDFATYYCQQSYTTPPTFGQGTKVEIK
notes: as the heavy chain variable region of m1 (PDB 2FJF); constant regions of an IgG1 isotype, already in the expression vector; as the light chain variable region of m1 (PDB 2FJF), with the stated change; light chain constant region from the expression vector; IgG1; source: CHO K1, transiently transfected, purified (protein A)
B8: mAb2_SL50K_FH101P (antibody, V domains shown)
VH: EVQLVESGGGLVQPGGSLRLSCAASGFTISDYWIHWVRQAPGKGLEWVAGITPAGGYTYYADSVKGRFTISADTSKNTAYLQMNSLRAEDTAVYYCARFVPFLPYAMDYWGQGTLVTVSS
VL: DIQMTQSPSSLSASVGDRVTITCRASQDVSTAVAWYQQKPGKAPKLLIYKASFLYSGVPSRFSGSGSGTDFTLTISSLQPEDFATYYCQQSYTTPPTFGQGTKVEIK
notes: as the heavy chain variable region of m1 (PDB 2FJF), with the stated change; constant regions of an IgG1 isotype, already in the expression vector; as the light chain variable region of m1 (PDB 2FJF), with the stated change; light chain constant region from the expression vector; IgG1; also called mAb2 FH101P SL50K; variant 8; source: CHO K1, transiently transfected, purified (protein A)
B9: mAb2_SL52R_FH101P (antibody, V domains shown)
VH: EVQLVESGGGLVQPGGSLRLSCAASGFTISDYWIHWVRQAPGKGLEWVAGITPAGGYTYYADSVKGRFTISADTSKNTAYLQMNSLRAEDTAVYYCARFVPFLPYAMDYWGQGTLVTVSS
VL: DIQMTQSPSSLSASVGDRVTITCRASQDVSTAVAWYQQKPGKAPKLLIYSARFLYSGVPSRFSGSGSGTDFTLTISSLQPEDFATYYCQQSYTTPPTFGQGTKVEIK
notes: as the heavy chain variable region of m1 (PDB 2FJF), with the stated change; constant regions of an IgG1 isotype, already in the expression vector; as the light chain variable region of m1 (PDB 2FJF), with the stated change; light chain constant region from the expression vector; IgG1; also called mAb2 FH101P SL52R; source: CHO K1, transiently transfected, purified (protein A)

The target of this experiment is T1, recombinant human Vascular Endothelial Growth Factor a (Homo sapiens, UniProt P15692-4, fluorescently labeled with Alexa-647).
T1 construct: human VEGFa, UniProt ID P15692, aa 27-191 as printed; the isoform is my reading of the limits 27-191; also called rhVEGFa; recombinant human VEGFa; source: recombinant
T1 sequence (P15692 other isoform, or with tags, fused parts or gaps): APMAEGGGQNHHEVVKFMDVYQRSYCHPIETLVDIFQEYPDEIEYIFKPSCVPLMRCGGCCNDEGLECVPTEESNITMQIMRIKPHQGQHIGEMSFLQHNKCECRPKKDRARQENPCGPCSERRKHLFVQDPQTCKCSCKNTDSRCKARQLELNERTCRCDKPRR
Description: MST; Alexa-647-labelled rhVEGFa constant at 1 nM in solution, mAb2 WT or variants in varying concentrations; 295 K; 25 mM sodium citrate pH 6.0, 125 mM NaCl, 0.05% Tween 20; triplicates; NanoTemper Monolith NT.115. The settings on record: both partners purified.
As for B1, the Kd stood at 8.3 ± 1.4 nM. On to B2, for which the Kd was found to be 57.1 ± 6.2 nM. B3: the binding result is given as “no binding”. Take B4: the binding result is reported as “no binding”. Regarding B5, the binding result is recorded as “no binding”.

For the molecule B6, the binding result was “no binding”. On to B7, for which the Kd turned out to be 4.4 ± 1.3 nM. Consider B8, for which the binding result is “no binding”. The same measure, in the same setting: next, B9: “no binding”.
